Reference: paper PMC5727457 (Nucleic Acids Research, 2017)

T1: Psy3 (S. cerevisiae, UniProt Q12318 1-242)
T1 sequence: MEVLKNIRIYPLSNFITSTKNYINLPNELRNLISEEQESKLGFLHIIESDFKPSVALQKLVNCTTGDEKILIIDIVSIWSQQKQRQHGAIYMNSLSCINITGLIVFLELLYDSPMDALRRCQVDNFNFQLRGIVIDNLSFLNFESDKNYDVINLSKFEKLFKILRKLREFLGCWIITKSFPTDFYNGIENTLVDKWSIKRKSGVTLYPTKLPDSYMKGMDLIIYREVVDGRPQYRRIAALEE

T2: His6-tagged Psy3-Csm2 heterodimer (S. cerevisiae, UniProt Q12318;P40465)
T2 sequence 1: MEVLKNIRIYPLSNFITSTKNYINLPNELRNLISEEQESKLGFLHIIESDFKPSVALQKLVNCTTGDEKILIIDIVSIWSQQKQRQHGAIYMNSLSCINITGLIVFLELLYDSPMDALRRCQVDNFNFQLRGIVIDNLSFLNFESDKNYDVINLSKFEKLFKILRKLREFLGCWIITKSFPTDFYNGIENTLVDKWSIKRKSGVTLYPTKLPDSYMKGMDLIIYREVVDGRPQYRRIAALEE
T2 sequence 2: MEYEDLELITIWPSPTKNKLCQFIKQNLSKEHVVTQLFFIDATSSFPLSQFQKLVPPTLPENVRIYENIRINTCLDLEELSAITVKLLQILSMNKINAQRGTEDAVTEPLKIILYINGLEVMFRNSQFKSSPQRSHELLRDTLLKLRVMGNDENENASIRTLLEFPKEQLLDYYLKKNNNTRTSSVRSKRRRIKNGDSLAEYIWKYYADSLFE

T3: His6-tagged Psy3Δ(1–7)-Csm2 heterodimer (S. cerevisiae, UniProt Q12318;P40465)
T3 sequence 1: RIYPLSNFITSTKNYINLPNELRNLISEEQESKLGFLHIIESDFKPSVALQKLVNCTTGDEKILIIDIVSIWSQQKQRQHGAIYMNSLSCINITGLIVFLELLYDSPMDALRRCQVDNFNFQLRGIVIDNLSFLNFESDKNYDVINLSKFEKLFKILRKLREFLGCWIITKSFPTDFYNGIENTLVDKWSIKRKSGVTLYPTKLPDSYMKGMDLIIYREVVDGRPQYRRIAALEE
T3 sequence 2: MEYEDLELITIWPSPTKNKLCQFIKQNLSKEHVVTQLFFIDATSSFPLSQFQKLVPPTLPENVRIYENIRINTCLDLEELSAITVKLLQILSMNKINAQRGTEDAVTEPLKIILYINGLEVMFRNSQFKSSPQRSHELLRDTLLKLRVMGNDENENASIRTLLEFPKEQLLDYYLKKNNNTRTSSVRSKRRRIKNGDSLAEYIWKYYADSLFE

B1: Csm2 (natural protein)
chain: MEYEDLELITIWPSPTKNKLCQFIKQNLSKEHVVTQLFFIDATSSFPLSQFQKLVPPTLPENVRIYENIRINTCLDLEELSAITVKLLQILSMNKINAQRGTEDAVTEPLKIILYINGLEVMFRNSQFKSSPQRSHELLRDTLLKLRVMGNDENENASIRTLLEFPKEQLLDYYLKKNNNTRTSSVRSKRRRIKNGDSLAEYIWKYYADSLFE
B2: Shu1 (natural protein)
chain: MQFEERLQQLVESDWSLDQSSPNVLVIVLGDTARKYVELGGLKEHVTTNTVAGHVASRERVSVVFLGRVKYLYMYLTRMQAQANGPQYSNVLVYGLWDLTATQDGPQQLRLLSLVLRQCLSLPSKVEFYPEPPSSSVPARLLRFWDHIIR
B3: Shu2-Shu1 heterodimer (His6 tag removed) (complex)
chain 1: MSKDVIEYSKLFAKLVNTNDDTKLDDTIASFLYYMFPRELFIRAISLLESSDMFIYILDRVHNKEGNEHTSLIDVLVDEFYKGSSNSLLEYRLIVKDTNDGAPPILVDIAHWFCSCEEFCKYFHEALEKTDEKEELHDVLINEVDDHLQFSDDRFAQLDPHSLSKQWYFKFDKVCCSHLLAFSILLRSSINVLKFFTVNSNKVFVIAIDNIDEWLNLHINIVE
chain 2: MQFEERLQQLVESDWSLDQSSPNVLVIVLGDTARKYVELGGLKEHVTTNTVAGHVASRERVSVVFLGRVKYLYMYLTRMQAQANGPQYSNVLVYGLWDLTATQDGPQQLRLLSLVLRQCLSLPSKVEFYPEPPSSSVPARLLRFWDHIIR
B4: Shu2-Shu1(V51A) heterodimer (His6 tag removed) (complex)
chain 1: MSKDVIEYSKLFAKLVNTNDDTKLDDTIASFLYYMFPRELFIRAISLLESSDMFIYILDRVHNKEGNEHTSLIDVLVDEFYKGSSNSLLEYRLIVKDTNDGAPPILVDIAHWFCSCEEFCKYFHEALEKTDEKEELHDVLINEVDDHLQFSDDRFAQLDPHSLSKQWYFKFDKVCCSHLLAFSILLRSSINVLKFFTVNSNKVFVIAIDNIDEWLNLHINIVE
chain 2: MQFEERLQQLVESDWSLDQSSPNVLVIVLGDTARKYVELGGLKEHVTTNTAAGHVASRERVSVVFLGRVKYLYMYLTRMQAQANGPQYSNVLVYGLWDLTATQDGPQQLRLLSLVLRQCLSLPSKVEFYPEPPSSSVPARLLRFWDHIIR
B5: Shu2-Shu1(V51L) heterodimer (His6 tag removed) (complex)
chain 1: MSKDVIEYSKLFAKLVNTNDDTKLDDTIASFLYYMFPRELFIRAISLLESSDMFIYILDRVHNKEGNEHTSLIDVLVDEFYKGSSNSLLEYRLIVKDTNDGAPPILVDIAHWFCSCEEFCKYFHEALEKTDEKEELHDVLINEVDDHLQFSDDRFAQLDPHSLSKQWYFKFDKVCCSHLLAFSILLRSSINVLKFFTVNSNKVFVIAIDNIDEWLNLHINIVE
chain 2: MQFEERLQQLVESDWSLDQSSPNVLVIVLGDTARKYVELGGLKEHVTTNTLAGHVASRERVSVVFLGRVKYLYMYLTRMQAQANGPQYSNVLVYGLWDLTATQDGPQQLRLLSLVLRQCLSLPSKVEFYPEPPSSSVPARLLRFWDHIIR
B6: His6-Shu2 (natural protein)
chain: MSKDVIEYSKLFAKLVNTNDDTKLDDTIASFLYYMFPRELFIRAISLLESSDMFIYILDRVHNKEGNEHTSLIDVLVDEFYKGSSNSLLEYRLIVKDTNDGAPPILVDIAHWFCSCEEFCKYFHEALEKTDEKEELHDVLINEVDDHLQFSDDRFAQLDPHSLSKQWYFKFDKVCCSHLLAFSILLRSSINVLKFFTVNSNKVFVIAIDNIDEWLNLHINIVE

How the values were obtained:
Psy3 = target: T1, Psy3; test: crystal structure
His6-Shu2 = target: B6; test: pull-down
[1] = target: T2, His6-tagged Psy3-Csm2 heterodimer; test: pull-down
[2] = target: T3, His6-tagged Psy3Δ(1–7)-Csm2 heterodimer; test: pull-down

Row | Binder | binding result (Psy3) | binding result [1] | also measured
1 | B1 | binds |  | 
2 | B2 | binds |  | binding result (His6-Shu2): binds
3 | B3 |  | binds | binding result [2]: binds
4 | B4 |  | binds | 
5 | B5 |  | binds | 
6 | B6 | binds |  | 
